Assay results: the domain aggregation screens of Martell et al. (2025)

assay: soluble fraction after stress (log2 fold change); higher = more stays soluble; pooled small domains, quantitative proteomics; conditions: stress: 50 degC
How it was run: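 The measure of aggregation propensity here is the base-two logarithm of the fold change in the soluble amount of each protein after stress. A higher value means more of that protein stays in solution. Stress was applied at 50°C to pooled libraries of small protein domains, read out by high-throughput quantitative proteomics.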

Sequence | soluble fraction (log2)
HMKNTVGEYRKLKSTTILYSNSDLTGTKYTYLPNTTVKILKNISSTVDYVYIKATNRYAYINIYAYT | -2.75
HMGIKSSASLQEAAEKAQSAYYDIEHSGVATAVDIQRAWVAMVAAQIDAGEKLDSGTITLYERLKTST | 0.0423
HMEPVQPVMYSEFIESVERGEVVEATIQGDKIIATDRSGNRYTVVGSAKDPQLVGQLLERNVAFKFVEE | 0.00245
HMQFLGKVTVTHARQANLRAQPSMDAAIVGKVNPGEVYNVVSIPKTSWYEIQLQNGKTVFIAAGMVSFRM | -0.557
HMHDWDITTAAKPEKIFELFSDIPVLETGLKHGTVTLLIDHEPYEVTTFRVDGNYTDGRHPDSVAFT | -0.0484
HMDNFDVVLTSPGDQKVQVIKAVRSITGLGLKEAKDLVDGAPNTVKEGVKKLDAEEMLKQLTEAGATGEL | 0.296
HMRLEYLVDVEEISIKEYLMLLGLSRRLARKIKLYGKMYINHQEAFNYHLVKKGDLLTIEFDE | -2.55
HMADLKRLNEQIHYLGQYLSTKATYKEFLQANNKKIYRSEHQDEIAKYEEAAQFLKRSSPDGTIPTMKDLR | -0.0887
HMNILKKDKRLWDENNLNKPLLFELLENYDKEIFELLLTDKDIKAKFFVQAGESYVFKYDDFRFAIEQN | -0.702
HMDEYILTLDEVKELLKSKDYDDLKNVLKWSNKFQKDTIIQTAISEKVSDANVINIIKEITGQDITSLIV | 0.0322
HMGPGDTTIPTTIIGMSLEEARNELSAAGLLVARIIPVDSNSRTGTVLKITPDAGSIIKAGSGVELEIAS | 0.0765
HMEFQISLAAARVNANMTQEDTARAMKVSKTTIVNWEKGKVIPGIPEVEMMSRLYGIPQDYIFLP | -3.2
HMEKRRQEIVELVKRESEISFAELKQHFPEVSEVTLRKDLKYLDSTLQIIRIHGGAKSLPAAI | -0.362
HMTKEEIVVNWLPRYTKRNLEDFGEYILLTNFNKYVEIFAEKFNVPILGRDANMISASAEGITIIN | -0.191
HMGSQSYVAIVNERFKESDIVELGGSVGSRTGDIITLHFRNSSPNELKNITGIVYLQVANKVTPKL | -0.612
HMRDLTARQQQILALIRQHIADTGFPPTRAEIAAQLGFRSPNAAEEHLKALARKGVIELASGASRGIRLK | -0.16
HMRSDSEIKEDVLDELMWQPNIDETQIGVIVEKGVVTLTGFVDAYAKKTAALDAVKNVKGVKAVANDIEV | 0.131
HMTLFDESGYTARELEIIREVANGLSNKEIADKLFLSEGTVKNYITGILAKENLSHRTALAVYYLTGRK | 0.0583
HMDDPYAGLRQRAYLFLRERDGAVPEEELIEHVFGSSGNPALWRPLLRQVLGADDRLDLRADGYWALRG | 0.118
HMDLVIALNSRIRVIREPFFGKLGTVIDLPHKLHKMESGTMTRVAKIKFDDRTEEIIPRTNLEVILS | -2.69
HMFGQRLRLARKRAGLSMQALAQRMSPPVTAQAISKYEADRMMPSSAVLVGLGKALGVSLDFLMGGQ | -0.835
HMTLKTISLTEAIKNTNEGNYSKLVLDGNELTITEQGKETPSLKTYTEPGTSLKEQGFDLSKVEFEAREQS | 0.152
HMTSSQRDSILEFLKTRKDHPTADVVYMNVRKSFPNISLGTVYRNLTLLSDIGQIAKIRVGDGVDHFDADT | -0.526
HMTPTPQQNNILVGQTGTTLTRLAPMGKVRVGEVTAEAKTIDGYINPRQSVEVIGFENTVVIVRAV | 0.144
HMTNLTPKQQQIYQFIRASTQANGYPPTLREIGQQVGVRSPSTVKYHLDNLRTLGLLHWDGGKTRSITLP | -0.372
HMEISEILNPPLVTAMAERYPEVDVSYYRDKYILYYESREHKITDHRRNFEKWLLVESQKEEN | -1.07
HMSKEKQILQLLQHGYSQRRIADTLSVSRNTVAKVAKAAIEHPVSSDSLDSIDELELHQKLFPEEVLI | -0.339
HMNSIDIENELVKIIEKNGQPMSFDDLVFKLDSLYSTRYKFAKGYIRTIILNSNRIASIGKTSTYSLYKWN | -2.25
HMDNLSQMQERILEFIIRSKDQSGYTPSLREIGDEVGLKAVSSVKYQLEQLKDAHYISFDANTARAIRVLI | -1.7
HMGPFYFDQDGKAYSGLLNRNGEILYFADPFNAAVKNTTKTIDGKTYTFNQNGRATSIDGIPLEPP | 0.142
